Measured values: the Immune Epitope Database (IEDB)

Tests used:
Assay in all cases: IEDB peptide-MHC binding, purified MHC/competitive/radioactivity; filed as Kd, often an IC50 or EC50 that approximates it; ≥ and ≤ were set here for values at or beyond the usual limits of such assays
HLA-A*03:01 = target: HLA-A*03:01
HLA-A*11:01 = target: HLA-A*11:01
HLA-A*31:01 = target: HLA-A*31:01
HLA-A*33:01 = target: HLA-A*33:01
HLA-A*68:01 = target: HLA-A*68:01
[1] = source organism: Vaccinia virus WR
[2] = source organism: Dengue virus 4 Philippines/H241/1956
[3] = source organism: SARS coronavirus Tor2
[4] = source organism: Dengue virus 1 Brazil/97-11/1997
[5] = source organism: Dengue virus 2 Jamaica/1409/1983
[6] = source organism: Mammarenavirus machupoense
[7] = source organism: Dengue virus 2 Peru/IQT2913/1996
[8] = source organism: Vaccinia virus Copenhagen
[9] = source organism: Dengue virus 3 Martinique/1243/1999
[10] = source organism: Mammarenavirus brazilense
[11] = source organism: Vaccinia virus LC16M8

Sequence	Kd (HLA-A*03:01; [1])	Kd (HLA-A*11:01; [1])	Kd (HLA-A*31:01; [1])	Kd (HLA-A*33:01; [1])	Kd (HLA-A*68:01; [1])	other results
AALFMYYAKR	312 nM	178 nM	16.8 nM	837 nM	33.1 nM	–
AIKILTGFRK	–	–	–	–	–	Kd (HLA-A*03:01; [2]): 103 nM; Kd (HLA-A*11:01; [2]): 1760 nM
AITPTIEDDK	487 nM	115 nM	≥ 47900 nM	≥ 42600 nM	6640 nM	–
ALLSTDGNK	–	–	–	–	–	Kd (HLA-A*03:01; [3]): 52.5 nM; Kd (HLA-A*11:01; [3]): 494 nM; Kd (HLA-A*31:01; [3]): 10200 nM; Kd (HLA-A*33:01; [3]): ≥ 77700 nM; Kd (HLA-A*68:01; [3]): ≥ 23700 nM
ATKIIALNK	–	–	–	–	–	Kd (HLA-A*03:01; [3]): 1360 nM; Kd (HLA-A*11:01; [3]): 334 nM; Kd (HLA-A*31:01; [3]): 840 nM; Kd (HLA-A*33:01; [3]): ≥ 77700 nM; Kd (HLA-A*68:01; [3]): 15900 nM
ATMLEYVRY	1700 nM	23.5 nM	3410 nM	≥ 77700 nM	≥ 29400 nM	–
ATTVITPMMR	–	–	–	–	–	Kd (HLA-A*11:01; [4]): 141 nM; Kd (HLA-A*31:01; [4]): 125 nM; Kd (HLA-A*68:01; [4]): 368 nM
AVHDFFKFR	–	–	–	–	–	Kd (HLA-A*03:01; [3]): 7140 nM; Kd (HLA-A*11:01; [3]): 7.56 nM; Kd (HLA-A*31:01; [3]): 4.9 nM; Kd (HLA-A*33:01; [3]): 273 nM; Kd (HLA-A*68:01; [3]): 11.3 nM
AVILQNAWK	–	–	–	–	–	Kd (HLA-A*11:01; [5]): 128 nM
AVLMHKGKR	–	–	–	–	–	Kd (HLA-A*31:01; [5]): 64.7 nM
CVDIPGIPK	–	–	–	–	–	Kd (HLA-A*03:01; [3]): 149 nM; Kd (HLA-A*11:01; [3]): 19.9 nM; Kd (HLA-A*31:01; [3]): ≥ 10000 nM; Kd (HLA-A*33:01; [3]): ≥ 37900 nM; Kd (HLA-A*68:01; [3]): 102 nM
DFYDFAVSK	–	–	–	–	–	Kd (HLA-A*03:01; [3]): 4110 nM; Kd (HLA-A*11:01; [3]): 8940 nM; Kd (HLA-A*31:01; [3]): 12400 nM; Kd (HLA-A*33:01; [3]): 9.36 nM; Kd (HLA-A*68:01; [3]): 56.9 nM
DIICEDAMY	≥ 78000 nM	≥ 77900 nM	≥ 77900 nM	≥ 20200 nM	4550 nM	–
DLIVTFRER	12700 nM	8140 nM	509 nM	14.8 nM	19.8 nM	–
DSIPISELSR	≥ 44900 nM	986 nM	4140 nM	25.5 nM	12.3 nM	–
EIITGNKVK	≥ 78000 nM	1200 nM	≥ 77900 nM	≥ 77700 nM	233 nM	–
EMVDELVTRK	≥ 70100 nM	8710 nM	≥ 70000 nM	≥ 70000 nM	1210 nM	–
EWMLIAAKMK	–	–	–	–	–	Kd (HLA-A*03:01; [6]): 5950 nM; Kd (HLA-A*11:01; [6]): ≥ 24100 nM; Kd (HLA-A*31:01; [6]): 1260 nM; Kd (HLA-A*33:01; [6]): 49 nM; Kd (HLA-A*68:01; [6]): 3530 nM
FTDISMSLYK	55.9 nM	8.84 nM	9320 nM	4210 nM	24.9 nM	–
FVASFRLFAR	–	–	–	–	–	Kd (HLA-A*03:01; [3]): 94.2 nM; Kd (HLA-A*11:01; [3]): 50 nM; Kd (HLA-A*31:01; [3]): 6.64 nM; Kd (HLA-A*33:01; [3]): 14.1 nM; Kd (HLA-A*68:01; [3]): 0.106 nM
FVCKHSMVDR	–	–	–	–	–	Kd (HLA-A*31:01; [7]): 117 nM; Kd (HLA-A*33:01; [7]): 122 nM; Kd (HLA-A*68:01; [7]): 1050 nM
GILKKLSSIK	13.9 nM	375 nM	5480 nM	≥ 70000 nM	≥ 20100 nM	–
GLLFRRLTSR	–	–	–	–	–	Kd (HLA-A*03:01; [4]): 170 nM; Kd (HLA-A*31:01; [4]): ≥ 53700 nM

Sequence	Kd (HLA-A*03:01; [1])	Kd (HLA-A*11:01; [1])	Kd (HLA-A*31:01; [1])	Kd (HLA-A*33:01; [1])	Kd (HLA-A*68:01; [1])	other results
GLTTHCTKLR	5180 nM	4630 nM	511 nM	4210 nM	12100 nM	–
GSTAEQLSK	307 nM	14 nM	≥ 77900 nM	≥ 77700 nM	≥ 43000 nM	–
GVIADYNYK	–	–	–	–	–	Kd (HLA-A*03:01; [3]): 23.8 nM; Kd (HLA-A*11:01; [3]): 5.97 nM; Kd (HLA-A*31:01; [3]): 126 nM; Kd (HLA-A*33:01; [3]): 4910 nM; Kd (HLA-A*68:01; [3]): 72 nM
HINALEYIIK	117 nM	87.9 nM	1520 nM	200 nM	35.9 nM	–
IAVSTANIFR	–	–	–	–	–	Kd (HLA-A*33:01; [2]): 1050 nM; Kd (HLA-A*68:01; [2]): 9.46 nM
IFAFIDFSK	–	–	–	–	–	Kd (HLA-A*03:01; [8]): 78.2 nM; Kd (HLA-A*11:01; [8]): 20.5 nM; Kd (HLA-A*31:01; [8]): 251 nM; Kd (HLA-A*33:01; [8]): 42.6 nM; Kd (HLA-A*68:01; [8]): 8.56 nM
IFREIASSMK	198 nM	1570 nM	425 nM	467 nM	3470 nM	–
IITPVVFYR	59.2 nM	0.322 nM	1.08 nM	6.62 nM	0.0181 nM	–
IMVASDVCK	150 nM	369 nM	991 nM	3480 nM	408 nM	–
ISARALKAY	542 nM	334 nM	9600 nM	16400 nM	2470 nM	–
ISIMIEEVMR	–	–	–	–	–	Kd (HLA-A*68:01; source organism: Dengue virus 1 Singapore/S275/1990): 82.3 nM
ITNITTDSR	–	–	–	–	–	Kd (HLA-A*68:01; [9]): 26.3 nM
ITPDDGLGLR	≥ 70100 nM	16200 nM	11600 nM	9910 nM	69.2 nM	–
ITVDDDGTMR	–	–	–	–	–	Kd (HLA-A*68:01; [9]): 77.3 nM
ITVNPIVTEK	–	–	–	–	–	Kd (HLA-A*03:01; [5]): 24.1 nM; Kd (HLA-A*11:01; [5]): 69.2 nM; Kd (HLA-A*68:01; [5]): 154 nM
IVNNQESNK	–	–	–	–	–	Kd (HLA-A*03:01; [8]): 132 nM; Kd (HLA-A*11:01; [8]): 147 nM; Kd (HLA-A*31:01; [8]): 1180 nM; Kd (HLA-A*33:01; [8]): ≥ 77700 nM; Kd (HLA-A*68:01; [8]): 111 nM
KCSDHYICLK	–	–	–	–	–	Kd (HLA-A*03:01; [10]): 276 nM; Kd (HLA-A*11:01; [10]): 1890 nM; Kd (HLA-A*31:01; [10]): 482 nM; Kd (HLA-A*33:01; [10]): 8220 nM; Kd (HLA-A*68:01; [10]): ≥ 70100 nM
KFTTSLSLHK	–	–	–	–	–	Kd (HLA-A*03:01; [3]): 275 nM; Kd (HLA-A*11:01; [3]): 135 nM; Kd (HLA-A*31:01; [3]): 239 nM; Kd (HLA-A*33:01; [3]): 8190 nM; Kd (HLA-A*68:01; [3]): 302 nM
KIVDHIVMY	17.9 nM	92.2 nM	11800 nM	≥ 24800 nM	7980 nM	–
KLITPNYMK	10.3 nM	5.08 nM	486 nM	≥ 59300 nM	2790 nM	–
KSEFNTYKR	–	–	–	–	–	Kd (HLA-A*31:01; [4]): 1340 nM
KSKNINIEVK	305 nM	568 nM	1070 nM	≥ 70000 nM	13300 nM	–
KSSSIDVDKR	2630 nM	550 nM	84.4 nM	8180 nM	17 nM	–

Sequence	Kd (HLA-A*03:01; [1])	Kd (HLA-A*11:01; [1])	Kd (HLA-A*31:01; [1])	Kd (HLA-A*33:01; [1])	Kd (HLA-A*68:01; [1])	other results
KTDFKVVKK	14.8 nM	60.6 nM	71.1 nM	1210 nM	365 nM	–
LFASADNHPK	–	–	–	–	–	Kd (HLA-A*03:01; [11]): 399 nM; Kd (HLA-A*11:01; [11]): 85.9 nM; Kd (HLA-A*31:01; [11]): 9330 nM; Kd (HLA-A*33:01; [11]): 9860 nM; Kd (HLA-A*68:01; [11]): 264 nM
LSRLRYNLCK	92.9 nM	715 nM	206 nM	2640 nM	3510 nM	–
LTIKDSSNK	827 nM	14.9 nM	≥ 34800 nM	≥ 77700 nM	9.14 nM	–
LTILDDNLYK	–	–	–	–	–	Kd (HLA-A*03:01; [8]): 229 nM; Kd (HLA-A*11:01; [8]): 3.38 nM; Kd (HLA-A*31:01; [8]): 6840 nM; Kd (HLA-A*33:01; [8]): 17700 nM; Kd (HLA-A*68:01; [8]): 19.5 nM
LTMKAIEKDR	12100 nM	280 nM	595 nM	6250 nM	65.5 nM	–
MGYWIESQK	–	–	–	–	–	Kd (HLA-A*03:01; [9]): 12.8 nM; Kd (HLA-A*68:01; [9]): 67.2 nM
MIIKHIYEQY	≥ 70100 nM	5780 nM	≥ 70000 nM	≥ 70000 nM	140 nM	–
MLAHAEETRK	–	–	–	–	–	Kd (HLA-A*03:01; [3]): 496 nM; Kd (HLA-A*11:01; [3]): 6390 nM; Kd (HLA-A*31:01; [3]): 9410 nM; Kd (HLA-A*33:01; [3]): ≥ 70000 nM; Kd (HLA-A*68:01; [3]): 157 nM
MLNILNGRKR	–	–	–	–	–	Kd (HLA-A*31:01; [2]): 17.3 nM
MSLSEQLRK	–	–	–	–	–	Kd (HLA-A*03:01; [3]): 8.24 nM; Kd (HLA-A*11:01; [3]): 4.01 nM; Kd (HLA-A*31:01; [3]): 181 nM; Kd (HLA-A*33:01; [3]): 4730 nM; Kd (HLA-A*68:01; [3]): 169 nM
MWTLMYFHRR	–	–	–	–	–	Kd (HLA-A*31:01; [5]): 33.6 nM; Kd (HLA-A*33:01; [5]): 29.8 nM
NATDFWRLY	44.1 nM	126 nM	477 nM	526 nM	52.3 nM	–
NFFTELENKK	≥ 61800 nM	≥ 32300 nM	≥ 70000 nM	≥ 32800 nM	6670 nM	–
NFMVSVSDFR	9960 nM	4030 nM	93.9 nM	33.1 nM	6.56 nM	–
RFWDLVHRER	–	–	–	–	–	Kd (HLA-A*31:01; [4]): ≥ 49800 nM; Kd (HLA-A*33:01; [4]): 19.7 nM
RIMQRGLFGK	–	–	–	–	–	Kd (HLA-A*03:01; [2]): 5.43 nM; Kd (HLA-A*11:01; [2]): 29.5 nM; Kd (HLA-A*31:01; [2]): 10.9 nM
STPIVVQMTK	–	–	–	–	–	Kd (HLA-A*11:01; [3]): 14.2 nM
TFHTMWHVTR	–	–	–	–	–	Kd (HLA-A*31:01; [5]): 19.1 nM; Kd (HLA-A*33:01; [5]): 7.95 nM
TLFGPEREK	–	–	–	–	–	Kd (HLA-A*03:01; [2]): 85.9 nM
VFHTMWHVTR	–	–	–	–	–	Kd (HLA-A*31:01; [9]): 4.53 nM; Kd (HLA-A*33:01; [9]): 135 nM
